Two substances from US20110104145A1, “METHOD FOR THE TREATMENT OR PROPHYLAXIS OF CHRONIC INFLAMMATORY DISEASES” (priority 2008, published 2011) can be followed below.

The target in the assay is CD89 (Fc receptor for IgA) on polymorphonuclear cells (human) (UniProt P24071). The assay is described as follows: cell-based or functional assay.
Chain of CD89 (Fc receptor for IgA) on polymorphonuclear cells (human) (P24071 22-287): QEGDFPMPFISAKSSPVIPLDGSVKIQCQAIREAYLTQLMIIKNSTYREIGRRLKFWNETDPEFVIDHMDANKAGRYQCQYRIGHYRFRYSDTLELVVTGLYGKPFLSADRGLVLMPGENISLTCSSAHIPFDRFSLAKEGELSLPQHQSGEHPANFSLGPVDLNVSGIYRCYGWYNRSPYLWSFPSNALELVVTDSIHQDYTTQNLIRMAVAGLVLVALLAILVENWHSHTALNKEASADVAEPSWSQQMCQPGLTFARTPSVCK

anti-CD89 monoclonal antibody MIP8a gave a percentage blocking (polymorphonuclear cells bound to IgA-coated beads, 2-D migration assay) of 75 to 90%.

anti-CD89 monoclonal antibody MY43 had a percentage blocking (polymorphonuclear cells bound to IgA-coated beads, 2-D migration assay) of 30%.
